Experimental data as given in patent US20250282866A1 (VIGIL NEUROSCIENCE, published 2025).

Tests used:
human TREM2 [1] = target: T1, human TREM2 (human, UniProt Q9NZC2 19-174, limits assumed); assay: 2nd screen 2 nM
T1 construct: also called triggering receptor expressed on myeloid cells 2
T1 sequence: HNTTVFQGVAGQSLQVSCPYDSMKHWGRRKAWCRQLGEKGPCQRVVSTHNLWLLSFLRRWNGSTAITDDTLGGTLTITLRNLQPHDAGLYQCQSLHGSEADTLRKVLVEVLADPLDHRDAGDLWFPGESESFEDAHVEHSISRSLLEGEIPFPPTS

human TREM2 [2] = target: T1, human TREM2; assay: 1st screen (110 nM or 10 nM)
human TREM2 [3] = target: T1, human TREM2; assay: 2nd screen 10 nM
human TREM2 [4] = target: T1, human TREM2; assay: 2nd screen 100 nM

B1: V1 (antibody, V domains shown)
VH: EVQLVQSGAEVKKPGESLKISCKGSGYSFTSSWIAWVRQMPGKGLEWMGIIYPGDSDTRYSPSFQGQVTISADKSISTAYLQWSSLKASDTAMYFCARSRTFYYDSSDYFDYWGQGTLVTVSS
VL: DIQMTQSPSSVSASVGDRVTITCRASQGISSWLAWYQQKPGKAPKLLIYAASSLTNGVPSRFSGSGSGTDFTLTISSLQPEDFATYFCQQADSYPRTFGQGTKLEIK
With B1 the “Binding Signal (fold over 6E7 Parental antibody)” value (human TREM2 [1]) was 1.29 fold, the “Binding Signal (fold over 6E7 Parental antibody)” value (human TREM2 [2]) was 1.68 fold and the “Binding Signal (fold over 6E7 Parental antibody)” value (human TREM2 [3]) was 1.92 fold.

B2: V2 (antibody, V domains shown)
VH: EVQLVQSGAEVKKPGESLKISCKGSGSSFTSYWIAWVRQMPGKGLEWMGIIYPGDGDTRYSPSFQGQVTISADKSISTAYLQWSSLKASDTAMYFCARSRTFYYDSSDYFDYWGQGTLVTVSS
VL: DIQMTQSPSSVSASVGDRVTITCRASQGISSWLAWYQQKPGKAPKLLIYAASSRQNGVPSRFSGSGSGTDFTLTISSLQPEDFATYFCQQADRFPRTFGQGTKLEIK
For B2, the “Binding Signal (fold over 6E7 Parental antibody)” value (human TREM2 [1]) was 2.23 fold, the “Binding Signal (fold over 6E7 Parental antibody)” value (human TREM2 [2]) was 2.55 fold and the “Binding Signal (fold over 6E7 Parental antibody)” value (human TREM2 [3]) was 2.9 fold.

B3: V3 (antibody, V domains shown)
VH: EVQLVQSGAEVKKPGESLKISCKGSGYSFASYWIAWVRQMPGKGLEWMGIIYPGDSDTRYSPSFQDQVTISADKSISTAYLQWSSLKASDTAMYFCARGRTFYYDSSDYFDYWGQGTLVTVSS
VL: DIQMTQSPSSVSASVGDRVTITCRASQGISSWLAWYQQKPGKAPKLLIYAASSRQNGVPSRFSGSGSGTDFTLTISSLQPEDFATYFCQQADRFPRTFGQGTKLEIK
For B3, the “Binding Signal (fold over 6E7 Parental antibody)” value (human TREM2 [1]) was 1.95 fold, the “Binding Signal (fold over 6E7 Parental antibody)” value (human TREM2 [2]) was 1.97 fold and the “Binding Signal (fold over 6E7 Parental antibody)” value (human TREM2 [3]) was 2.24 fold.

B4: V4 (antibody, V domains shown)
VH: EVQLVQSGAEVKKPGESLKISCKGSGYSFGSYWIAWVRQMPGKGLEWMGIIYPGDSDTRVSPSFQGQVTISADKSISTAYLQWSSLKASDTAMYFCARSRTFYYDSSDYFDYWGQGTLVTVSS
VL: DIQMTQSPSSVSASVGDRVTITCRASQGISSWLAWYQQKPGKAPKLLIYAASRLQNGVPSRFSGSGSGTDFTLTISSLQPEDFATYFCQQADSYPRTFGQGTKLEIK
With B4 the “Binding Signal (fold over 6E7 Parental antibody)” value (human TREM2 [1]) was 5.88 fold, the “Binding Signal (fold over 6E7 Parental antibody)” value (human TREM2 [2]) was 6 fold and the “Binding Signal (fold over 6E7 Parental antibody)” value (human TREM2 [3]) was 5.51 fold.

B5: V5 (antibody, V domains shown)
VH: EVQLVQSGAEVKKPGESLKISCKGSGYSFTSYWIAWVRQMPGKGLEWMGTIYPGDSDTRYSPSFQGQVTISADKSISTAYLQWSSLKASDTAMYFCARQRTFYYDSSDYFDYWGQGTLVTVSS
VL: DIQMTQSPSSVSASVGDRVTITCRASQGISSWLAWYQQKPGKAPKLLIYAASSLQNGVPSRFSGSGSGTDFTLTISSLQPEDFATYFCQQADSHPRTFGQGTKLEIK
With B5 the “Binding Signal (fold over 6E7 Parental antibody)” value (human TREM2 [1]) was 1.25 fold, the “Binding Signal (fold over 6E7 Parental antibody)” value (human TREM2 [2]) was 2.73 fold and the “Binding Signal (fold over 6E7 Parental antibody)” value (human TREM2 [3]) was 2.84 fold.

B6: V13 (antibody, V domains shown)
VH: EVQLVQSGAEVKKPGESLKISCKGSGYSFGSYWIAWVRQMPGKGLEWMGIIYPGDSDTRYSASFQGQVTISADKSISTAYLQWSSLKASDTAMYFCARGRTFYYDSSDYFDYWGQGTLVTVSS
VL: DIQMTQSPSSVSASVGDRVTITCRASQGISSWLAWYQQKPGKAPKLLIYAASSLQGGVPSRFSGSGSGTDFTLTISSLQPEDFATYFCQQADSMPRTFGQGTKLEIK
For B6, the “Binding Signal (fold over 6E7 Parental antibody)” value (human TREM2 [1]) was 1.15 fold, the “Binding Signal (fold over 6E7 Parental antibody)” value (human TREM2 [2]) was 1.31 fold and the “Binding Signal (fold over 6E7 Parental antibody)” value (human TREM2 [3]) was 1.35 fold.

B7: V14 (antibody, V domains shown)
VH: EVQLVQSGAEVKKPGESLKISCKGSGYSFGSYWIAWVRQMPGKGLEWMGIIYPGDQDTRYSPSFQGQVTISADKSISTAYLQWSSLKASDTAMYFCARGRTFYYDSSDYFDYWGQGTLVTVSS
VL: DIQMTQSPSSVSASVGDRVTITCRASQGISSWLAWYQQKPGKAPKLLIYAASRLQNGVPSRFSGSGSGTDFTLTISSLQPEDFATYFCQQADSFPRTFGQGTKLEIK
In the case of B7, the “Binding Signal (fold over 6E7 Parental antibody)” value (human TREM2 [1]) is reported as 2.57 fold, the “Binding Signal (fold over 6E7 Parental antibody)” value (human TREM2 [2]) is reported as 4.71 fold and the “Binding Signal (fold over 6E7 Parental antibody)” value (human TREM2 [3]) is reported as 4.64 fold.

B8: V15 (antibody, V domains shown)
VH: EVQLVQSGAEVKKPGESLKISCKGSGYSFASYWIAWVRQMPGKGLEWMGTIYPGDSDTRYSPSFQGQVTISADKSISTAYLQWSSLKASDTAMYFCARSRTFYYDSSDYFDYWGQGTLVTVSS
VL: DIQMTQSPSSVSASVGDRVTITCRASQGISSWLAWYQQKPGKAPKLLIYAASWLQNGVPSRFSGSGSGTDFTLTISSLQPEDFATYFCQQADSYPRTFGQGTKLEIK
With B8 the “Binding Signal (fold over 6E7 Parental antibody)” value (human TREM2 [1]) was 4.72 fold, the “Binding Signal (fold over 6E7 Parental antibody)” value (human TREM2 [2]) was 5.23 fold and the “Binding Signal (fold over 6E7 Parental antibody)” value (human TREM2 [3]) was 4.78 fold.

B9: V16 (antibody, V domains shown)
VH: EVQLVQSGAEVKKPGESLKISCKGSGYSMTSYWIAWVRQMPGKGLEWMGIIYPGDGDTRYSPSFQGQVTISADKSISTAYLQWSSLKASDTAMYFCARSRTFYYDSSDYFDYWGQGTLVTVSS
VL: DIQMTQSPSSVSASVGDRVTITCRASQGISSWLAWYQQKPGKAPKLLIYAASNLQNGVPSRFSGSGSGTDFTLTISSLQPEDFATYFCQQADSFPRTFGQGTKLEIK
B9 was tested, and the “Binding Signal (fold over 6E7 Parental antibody)” value (human TREM2 [1]) was 3.57 fold, the “Binding Signal (fold over 6E7 Parental antibody)” value (human TREM2 [2]) was 4.01 fold and the “Binding Signal (fold over 6E7 Parental antibody)” value (human TREM2 [3]) was 4.04 fold.

B10: V81 (antibody, V domains shown)
VH: EVQLVQSGAEVKKPGESLKISCKGSGYSFTSYWIAWVRQMPGKGLEWMGIIYPGDSDTRYSPSFQGQVTISADKSISTAYLQWSSLKASDTAMYFCARQRTFYYDSSDYFDYWGQGTLVTVSS
VL: DIQMTQSPSSVSASVGDRVTITCRASQGISSLLAWYQQKPGKAPKLLIYAASSLQNGVPSRFSGSGSGTDFTLTISSLQPEDFATYFCQQADSFPRTFGQGTKLEIK
For B10, the “Binding Signal (fold over 6E7 Parental antibody)” value (human TREM2 [2]) was 0.17 fold and the “Binding Signal (fold over 6E7 Parental antibody)” value (human TREM2 [4]) was 0.23 fold.

B11: V82 (antibody, V domains shown)
VH: EVQLVQSGAEVKKPGESLKISCKGSGYSFTSYWIAWVRQMPGKGLEWMGIIYPGDSDTRYSPSFQGQVTISADKSISTAYLQWSSLKASDTAMYFCARQRTFYYDSSDYFDYWGQGTLVTVSS
VL: DIQMTQSPSSVSASVGDRVTITCRASQGISSWLAWYQQKPGKAPKLLIYAGSSLQNGVPSRFSGSGSGTDFTLTISSLQPEDFATYFCQQADSFPRTFGQGTKLEIK
In the case of B11, the “Binding Signal (fold over 6E7 Parental antibody)” value (human TREM2 [2]) is reported as 0.3 fold and the “Binding Signal (fold over 6E7 Parental antibody)” value (human TREM2 [4]) is reported as 0.79 fold.

B12: V83 (antibody, V domains shown)
VH: EVQLVQSGAEVKKPGESLKISCKGSGYSFTSYWIAWVRQMPGKGLEWMGIIYPGDSDTRYSPSFQGQVTISADKSISTAYLQWSSLKASDTAMYFCARQRTFYYDSSDYFDYWGQGTLVTVSS
VL: DIQMTQSPSSVSASVGDRVTITCRASQGISSWLAWYQQKPGKAPKLLIYAASSLQNGVPSRFSGSGSGTDFTLTISSLQPEDFATYFCQQAVSFPRTFGQGTKLEIK
B12 was tested, and the “Binding Signal (fold over 6E7 Parental antibody)” value (human TREM2 [2]) was 0.2 fold and the “Binding Signal (fold over 6E7 Parental antibody)” value (human TREM2 [4]) was 0.29 fold.

B13: V90 (antibody, V domains shown)
VH: EVQLVQSGAEVKKPGESLKISCKGSGYSFTSEWIAWVRQMPGKGLEWMGIIYPGDSDTRYSPSFQGQVTISADKSISTAYLQWSSLKASDTAMYFCARQRTFYYDSSDYFDYWGQGTLVTVSS
VL: DIQMTQSPSSVSASVGDRVTITCRASQGISRWLAWYQQKPGKAPKLLIYAASSLQNGVPSRFSGSGSGTDFTLTISSLQPEDFATYFCQQADSFPRTFGQGTKLEIK
For B13, the “Binding Signal (fold over 6E7 Parental antibody)” value (human TREM2 [2]) was 0.33 fold and the “Binding Signal (fold over 6E7 Parental antibody)” value (human TREM2 [4]) was 0.36 fold.

B14: V91 (antibody, V domains shown)
VH: EVQLVQSGAEVKKPGESLKISCKGSGYSFTSYWIAWVRQMPGKGLEWMGIIYPDDSDTRYSPSFQGQVTISADKSISTAYLQWSSLKASDTAMYFCARQRTFYYDSSDYFDYWGQGTLVTVSS
VL: DIQMTQSPSSVSASVGDRVTITCRASQGISSWLAWYQQKPGKAPKLLIYAASSLQNGVPSRFSGSGSGTDFTLTISSLQPEDFATYFCQQADSFPRTFGQGTKLEIK
B14 was tested, and the “Binding Signal (fold over 6E7 Parental antibody)” value (human TREM2 [2]) was 0.25 fold and the “Binding Signal (fold over 6E7 Parental antibody)” value (human TREM2 [4]) was 0.61 fold.

B15: V92 (antibody, V domains shown)
VH: EVQLVQSGAEVKKPGESLKISCKGSGYSFTSYWIAWVRQMPGKGLEWMGIIYPGDSDTRYSPSFQGQVTISADKSISTAYLQWSSLKASDTAMYFCARQRTFHYDSSDYFDYWGQGTLVTVSS
VL: DIQMTQSPSSVSASVGDRVTITCRASQGISSWLAWYQQKPGKAPKLLIYAASSLQNGVPSRFSGSGSGTDFTLTISSLQPEDFATYFCQQADSFPRTFGQGTKLEIK
For B15, the “Binding Signal (fold over 6E7 Parental antibody)” value (human TREM2 [2]) was 0.22 fold and the “Binding Signal (fold over 6E7 Parental antibody)” value (human TREM2 [4]) was 0.65 fold.

B16: V93 (antibody, V domains shown)
VH: EVQLVQSGAEVKKPGESLKISCKGSGYSFTSYWIAWVRQMPGKGLEWMGIIYPGDSDTRYSPSFQGQVTISADKSISTAYLQWSSLKASDTAMYFCARQRTFYYDSSDYFDYWGQGTLVTVSS
VL: DIQMTQSPSSVSASVGDRVTITCRASQGISGWLAWYQQKPGKAPKLLIYAASSLQNGVPSRFSGSGSGTDFTLTISSLQPEDFATYFCQQADSFPRTFGQGTKLEIK
With B16 the “Binding Signal (fold over 6E7 Parental antibody)” value (human TREM2 [2]) was 0.35 fold and the “Binding Signal (fold over 6E7 Parental antibody)” value (human TREM2 [4]) was 1.05 fold.

B17: V94 (antibody, V domains shown)
VH: EVQLVQSGAEVKKPGESLKISCKGSGYSFTSYWIAWVRQMPGKGLEWMGIIYPGDSDTRYSPSFQGQVTISADKSISTAYLQWSSLKASDTAMYFCARQRTFYYDSSDYFDYWGQGTLVTVSS
VL: DIQMTQSPSSVSASVGDRVTITCRASQGISSWLAWYQQKPGKAPKLLIYAAASLQNGVPSRFSGSGSGTDFTLTISSLQPEDFATYFCQQADSFPRTFGQGTKLEIK
In the case of B17, the “Binding Signal (fold over 6E7 Parental antibody)” value (human TREM2 [2]) is reported as 0.31 fold and the “Binding Signal (fold over 6E7 Parental antibody)” value (human TREM2 [4]) is reported as 0.87 fold.
